Source: US20120077957A1 (PALATIN TECHNOLOGIES, published 2012)
Where two headings read alike, the source gives them in different places. Numbered stars: 1 amine (or outer) side, 2 acyl side, 3 side chain; on linkers, the order of the positions; unused ones are H or OH. Bridge positions count the residues as written; N and C are the ends. Square brackets hold non-standard residues; d marks the D form. * marks the point of attachment. Ser(Bzl) = O-benzyl-serine, O=C([C@H](COCc1ccccc1)N[*:1])[*:2]; Pro(trans-4-NH2) = O=C([C@@H]1C[C@@H](N[*:3])CN1[*:1])[*:2]; Nle = CCCC[C@H](N)C(=O)O; Orn = NCCC[C@H](N)C(=O)O; Dab = NCC[C@H](N)C(=O)O; Bn = c1ccc(C*)cc1

B1: Asp...Lys analog of peptide No. 40: Ac-Lys-cyclo(Asp-His-D-Phe-Arg-Trp-Lys)-NH2 (peptide)
peptide: Ac-KDH[dF]RWK-NH2
modifications: lactam 2-7
SMILES: CC(=O)N[C@@H](CCCCN)C(=O)N[C@H]1CC(=O)NCCCC[C@@H](C(N)=O)NC(=O)[C@H](Cc2c[nH]c3ccccc23)NC(=O)[C@H](CCCNC(=N)N)NC(=O)[C@@H](Cc2ccccc2)NC(=O)[C@H](Cc2c[nH]cn2)NC1=O
notes: also called Peptide Structure (Asp...Lys) in the row of No. 40
B2: Asp...Lys analog of peptide No. 47: Ac-Arg-cyclo(Asp-Pro-D-Phe-Arg-Trp-Lys)-NH2 (peptide)
peptide: Ac-RDP[dF]RWK-NH2
modifications: lactam 2-7
notes: also called Peptide Structure (Asp...Lys) in the row of No. 47
B3: Asp...Lys analog of peptides No. 34 and No. 46: Ac-Arg-cyclo(Asp-Asn-D-Phe-Arg-Trp-Lys)-NH2 (peptide)
peptide: Ac-RDN[dF]RWK-NH2
modifications: lactam 2-7
SMILES: CC(=O)N[C@@H](CCCNC(=N)N)C(=O)N[C@H]1CC(=O)NCCCC[C@@H](C(N)=O)NC(=O)[C@H](Cc2c[nH]c3ccccc23)NC(=O)[C@H](CCCNC(=N)N)NC(=O)[C@@H](Cc2ccccc2)NC(=O)[C@H](CC(N)=O)NC1=O
notes: also called Peptide Structure (Asp...Lys) in the rows of No. 34 and No. 46
B4: Asp...Lys analog of peptide No. 45: Ac-D-Arg-cyclo(Asp-Gln-D-Phe-Arg-Trp-Lys)-NH2 (peptide)
peptide: Ac-[dR]DQ[dF]RWK-NH2
modifications: lactam 2-7
notes: also called Peptide Structure (Asp...Lys) in the row of No. 45
B5: Asp...Lys analog of peptide No. 41: Ac-Arg-cyclo(Asp-Ala-D-Phe-Arg-Trp-Lys)-NH2 (peptide)
peptide: Ac-RDA[dF]RWK-NH2
modifications: lactam 2-7
notes: also called Peptide Structure (Asp...Lys) in the row of No. 41
B6: Asp...Lys analog of peptides No. 17 and No. 48: Ac-Arg-cyclo(Asp-Ser(Bzl)-D-Phe-Arg-Trp-Lys)-OH (peptide)
peptide: Ac-RD[Ser(Bzl)][dF]RWK-OH
modifications: lactam 2-7
notes: also called Peptide Structure (Asp...Lys) in the rows of No. 17 and No. 48
B7: Peptide No. 41: Ac-Arg-cyclo(Orn-Ala-D-Phe-Arg-Trp-Glu)-NH2 (peptide)
peptide: Ac-R[Orn]A[dF]RWE-NH2
modifications: lactam 2-7
SMILES: CC(=O)N[C@@H](CCCNC(=N)N)C(=O)N[C@H]1CCCNC(=O)CC[C@@H](C(N)=O)NC(=O)[C@H](Cc2c[nH]c3ccccc23)NC(=O)[C@H](CCCNC(=N)N)NC(=O)[C@@H](Cc2ccccc2)NC(=O)[C@H](C)NC1=O
B8: Peptide No. 21: Ac-cyclo(Glu-Gln-D-Phe-Arg-Trp-Orn)-NH2 (peptide)
peptide: Ac-EQ[dF]RW[Orn]-NH2
modifications: lactam 1-6
SMILES: CC(=O)N[C@H]1CCC(=O)NCCC[C@@H](C(N)=O)NC(=O)[C@H](Cc2c[nH]c3ccccc23)NC(=O)[C@H](CCCNC(=N)N)NC(=O)[C@@H](Cc2ccccc2)NC(=O)[C@H](CCC(N)=O)NC1=O

Assays:
[1] = molecular target: T1, human melanocortin-4 receptor (recombinant hMC4-R) (human, UniProt P32245 1-332); test: competition with labelled NDP-α-MSH ([I125] or Eu), hMC4-R HEK-293 membranes
T1 construct: whole, on cells; Ki assays used membrane homogenates of HEK-293 cells expressing recombinant hMC4-R; cAMP assays used HEK-293 T-REx cells induced with 0.1 ng/mL doxycycline; also called human MC4-R; MC4 receptor
T1 sequence (P32245 whole entry): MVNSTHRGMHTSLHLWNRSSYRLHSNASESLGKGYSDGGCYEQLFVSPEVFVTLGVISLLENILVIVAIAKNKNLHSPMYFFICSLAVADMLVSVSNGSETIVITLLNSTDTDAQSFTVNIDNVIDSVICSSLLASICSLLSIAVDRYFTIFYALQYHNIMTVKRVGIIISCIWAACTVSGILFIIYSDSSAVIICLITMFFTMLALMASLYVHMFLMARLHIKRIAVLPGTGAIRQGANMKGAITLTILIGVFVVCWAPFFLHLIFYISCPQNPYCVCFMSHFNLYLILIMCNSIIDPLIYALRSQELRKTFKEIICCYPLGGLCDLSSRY
Protocol: (§1) After incubation for 60 minutes at 37° C., the assay mixture was filtered and the membranes washed three times with ice-cold buffer. Filters were dried and counted in a gamma counter for bound radioactivity. […] Maximal specific binding (100%) was defined as the difference in radioactivity (cpm) bound to cell membranes in the absence and presence of 1 μM NDP-α-MSH. […] Ki values for test peptides of the present invention were determined using Graph-Pad Prism® curve-fitting software.
(§2) After incubation for 90 minutes at 37° C., the reaction was stopped by filtration over AcroWell 96-well filter plates (Pall Life Sciences). The filter plates were washed 4 times with 200 μL of ice-cold phosphate-buffered saline. DELFIA Enhancement solution (PerkinElmer Life Sciences) was added to each well. The plates were incubated on a shaker for 15 minutes and read at 340 nm excitation and 615 nm emission wavelengths. Each assay was conducted in duplicate and mean values were utilized. Ki values were determined by curve-fitting with Graph-Pad Prism® software using a one-site fixed-slope competition binding model.

[2] = molecular target: T1, human melanocortin-4 receptor …; test: cell-based or functional assay
[3] = molecular target: T1, human melanocortin-4 receptor …; test: cell-based or functional assay; remark: listed apart in the source
[4] = molecular target: T1, human melanocortin-4 receptor …; test: competition with labelled NDP-α-MSH ([I125] or Eu), hMC4-R HEK-293 membranes; remark: listed apart in the source
Protocol: as §1, §2

Row | Binder | Ki [1] | Emax (%), cAMP [2] | Ec50 (nM), cAMP [2] | Emax (%), cAMP [3] | Ki [4] | Ec50 (nM), cAMP [3]
1 | Ac-RE[Ser(Bzl)][dF]RW[Orn]-OH (lactam 2-7) [Peptide No. 17: Ac-Arg-cyclo(Glu-Ser(Bzl)-D-Phe-Arg-Trp-Orn)-OH] | 6 nM | 55% |  |  |  | 
2 | Ac-REN[dF]RW[Orn]-OH (lactam 2-7) [Peptide No. 20: Ac-Arg-cyclo(Glu-Asn-D-Phe-Arg-Trp-Orn)-OH] | 167 nM | 76% | 12 nM |  |  | 
3 | Ac-RE[Pro(trans-4-NH2)][dF]RW[Orn]-NH2 (lactam 2-7) [Peptide No. 32: Ac-Arg-cyclo(Glu-Pro(4R-NH2)-D-Phe-Arg-Trp-Orn)-NH2] | 6 nM | 55% |  |  |  | 
4 | Ac-REN[dF]RW[Orn]-NH2 (lactam 2-7) [Peptide No. 34: Ac-Arg-cyclo(Glu-Asn-D-Phe-Arg-Trp-Orn)-NH2] | 6 nM | 91% | 0.4 nM |  |  | 
5 | Ac-[Nle][Orn]H[dF]RWE-OH (lactam 2-7) [Peptide No. 35: Ac-Nle-cyclo(Orn-His-D-Phe-Arg-Trp-Glu)-OH] |  |  |  | 97% | 1 nM | 
6 | Ac-RE[Orn][dF]RW[Orn]-NH2 (lactam 2-7) [Peptide No. 8: Ac-Arg-cyclo(Glu-Orn-D-Phe-Arg-Trp-Orn)-NH2] | 9 nM | 95% | 0.4 nM |  |  | 
7 | B1 |  |  |  | 85% | 9 nM | 5 nM
8 | B2 |  |  |  | 43% | 17 nM | 9 nM
9 | B3 | 32 nM | 91% | 42 nM | 91% | 32 nM | 42 nM
10 | B4 |  |  |  | 89% | 45 nM | 
11 | B5 |  |  |  | 74% | 19 nM | 37 nM
12 | B6 | 9 nM | 38% | 5 nM | 38% | 9 nM | 5 nM
13 | Ac-R[Orn]H[dF]RWE-OH (lactam 2-7) [Peptide No. 37: Ac-Arg-cyclo(Orn-His-D-Phe-Arg-Trp-Glu)-OH] |  |  |  | 88% | 12 nM | 0.6 nM
14 | B7 |  |  |  | 52% | 19 nM | 7 nM
15 | Ac-K[Orn]H[dF]RWE-NH2 (lactam 2-7) [Peptide No. 40: Ac-Lys-cyclo(Orn-His-D-Phe-Arg-Trp-Glu)-NH2] |  |  |  | 114% | 3 nM | 0.2 nM
16 | Ac-R[Orn]S(Bn)[dF]RWE-OH (lactam 2-7) [Peptide No. 48: Ac-Arg-cyclo(Orn-Ser(Bzl)-D-Phe-Arg-Trp-Glu)-OH] |  |  |  | 50% | 5 nM | 3 nM
17 | Ac-R[Orn]P[dF]RWE-NH2 (lactam 2-7) [Peptide No. 47: Ac-Arg-cyclo(Orn-Pro-D-Phe-Arg-Trp-Glu)-NH2] |  |  |  | 54% | 5 nM | 6 nM
18 | Ac-[dR][Orn]H[dF]RWE-NH2 (lactam 2-7) [Peptide No. 39: Ac-D-Arg-cyclo(Orn-His-D-Phe-Arg-Trp-Glu)-NH2] |  |  |  | 103% | 4 nM | 0.2 nM
19 | Ac-RE[Orn](Ac)[dF]RW[Orn]-NH2 (lactam 2-7) [Peptide No. 33: Ac-Arg-cyclo(Glu-Orn(Acetyl)-D-Phe-Arg-Trp-Orn)-NH2] | 7 nM | 90% | 3 nM |  |  | 
20 | B8 | 74 nM | 49% | 26 nM |  |  | 
21 | Ac-R[Orn]H[dF]RWE-NH2 (lactam 2-7) [Peptide No. 38: Ac-Arg-cyclo(Orn-His-D-Phe-Arg-Trp-Glu)-NH2] |  |  |  | 84% | 1 nM | 1 nM
22 | Ac-R[Orn][Dab][dF]RWE-NH2 (lactam 2-7) [Peptide No. 43: Ac-Arg-cyclo(Orn-Dab-D-Phe-Arg-Trp-Glu)-NH2] |  |  |  | 103% | 3 nM | 0.1 nM
23 | Ac-[Nle][Orn]H[dF]RWE-NH2 (lactam 2-7) [Peptide No. 36: Ac-Nle-cyclo(Orn-His-D-Phe-Arg-Trp-Glu)-NH2] |  |  |  | 85% | 0.2 nM | 0.2 nM
